# T1: Mcm10 (GST tag removed) (yeast, UniProt P32354 1-571)
# T1 sequence (looked up): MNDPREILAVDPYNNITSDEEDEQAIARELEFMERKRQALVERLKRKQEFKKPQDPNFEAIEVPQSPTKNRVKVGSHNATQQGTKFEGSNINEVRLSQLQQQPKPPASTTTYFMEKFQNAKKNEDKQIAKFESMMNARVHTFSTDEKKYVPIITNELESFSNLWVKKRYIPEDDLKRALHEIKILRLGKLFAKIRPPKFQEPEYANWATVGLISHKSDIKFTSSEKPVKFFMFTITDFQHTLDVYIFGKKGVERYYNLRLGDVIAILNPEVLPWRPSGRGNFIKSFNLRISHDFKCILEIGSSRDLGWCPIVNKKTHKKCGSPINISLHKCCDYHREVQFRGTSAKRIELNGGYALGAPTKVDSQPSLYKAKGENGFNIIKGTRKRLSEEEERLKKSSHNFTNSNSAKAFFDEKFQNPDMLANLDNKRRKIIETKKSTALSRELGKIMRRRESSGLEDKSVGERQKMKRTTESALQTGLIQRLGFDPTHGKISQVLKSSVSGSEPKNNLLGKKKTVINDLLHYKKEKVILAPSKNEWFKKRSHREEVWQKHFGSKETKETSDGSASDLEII
# T2: GST-Mcm10 (yeast, UniProt P32354 1-571)
# T2 sequence (looked up): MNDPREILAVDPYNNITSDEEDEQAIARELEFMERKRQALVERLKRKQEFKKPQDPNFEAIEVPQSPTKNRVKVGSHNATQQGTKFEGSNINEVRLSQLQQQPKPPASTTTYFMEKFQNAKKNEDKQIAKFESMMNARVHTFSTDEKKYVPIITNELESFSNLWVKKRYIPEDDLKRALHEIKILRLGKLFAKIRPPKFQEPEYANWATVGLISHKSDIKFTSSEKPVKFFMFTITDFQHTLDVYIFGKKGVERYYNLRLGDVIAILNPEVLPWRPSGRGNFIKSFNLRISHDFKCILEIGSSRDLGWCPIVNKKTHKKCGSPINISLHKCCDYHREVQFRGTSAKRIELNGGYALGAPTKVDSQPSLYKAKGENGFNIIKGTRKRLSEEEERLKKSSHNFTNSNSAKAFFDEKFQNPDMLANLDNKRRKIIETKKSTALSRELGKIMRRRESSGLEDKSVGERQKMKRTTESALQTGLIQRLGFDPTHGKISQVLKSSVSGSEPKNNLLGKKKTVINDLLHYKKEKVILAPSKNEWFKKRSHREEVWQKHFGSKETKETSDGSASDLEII
# B1: GST-Mcm4 (1-471) (domain or fragment, yeast, UniProt P30665 1-471, looked up)
# chain: MSQQSSSPTKEDNNSSSPVVPNPDSVPPQLSSPALFYSSSSSQGDIYGRNNSQNLSQGEGNIRAAIGSSPLNFPSSSQRQNSDVFQSQGRQGRIRSSASASGRSRYHSDLRSDRALPTSSSSLGRNGQNRVHMRRNDIHTSDLSSPRRIVDFDTRSGVNTLDTSSSSAPPSEASEPLRIIWGTNVSIQECTTNFRNFLMSFKYKFRKILDEREEFINNTTDEELYYIKQLNEMRELGTSNLNLDARNLLAYKQTEDLYHQLLNYPQEVISIMDQTIKDCMVSLIVDNNLDYDLDEIETKFYKVRPYNVGSCKGMRELNPNDIDKLINLKGLVLRSTPVIPDMKVAFFKCNVCDHTMAVEIDRGVIQEPARCERIDCNEPNSMSLIHNRCSFADKQVIKLQETPDFVPDGQTPHSISLCVYDELVDSCRAGDRIEVTGTFRSIPIRANSRQRVLKSLYKTYVDVVHVKKVSD
# B2: GST-Mcm6 (1-439) (domain or fragment, yeast, UniProt P53091 1-439, looked up)
# chain: MSSPFPADTPSSNRPSNSSPPPSSIGAGFGSSSGLDSQIGSRLHFPSSSQPHVSNSQTGPFVNDSTQFSSQRLQTDGSATNDMEGNEPARSFKSRALNHVKKVDDVTGEKVREAFEQFLEDFSVQSTDTGEVEKVYRAQIEFMKIYDLNTIYIDYQHLSMRENGALAMAISEQYYRFLPFLQKGLRRVVRKYAPELLNTSDSLKRSEGDEGQADEDEQQDDDMNGSSLPRDSGSSAAPGNGTSAMATRSITTSTSPEQTERVFQISFFNLPTVHRIRDIRSEKIGSLLSISGTVTRTSEVRPELYKASFTCDMCRAIVDNVEQSFKYTEPTFCPNPSCENRAFWTLNVTRSRFLDWQKVRIQENANEIPTGSMPRTLDVILRGDSVERAKPGDRCKFTGVEIVVPDVTQLGLPGVKPSSTLDTRGISKTTEGLNSGVTG
# Tests used:
# Assay in all cases: pull-down
# Mcm10 (GST tag removed) = target: T1, Mcm10 (GST tag removed)
# GST-Mcm10 = target: T2, GST-Mcm10
# GST-Mcm6 (1-439) = target: B2
# GST-Mcm4 (1-471) = target: B1
binding result (Mcm10 (GST tag removed)),binding result (GST-Mcm10),binding result (GST-Mcm6 (1-439)),binding result (GST-Mcm4 (1-471)),Binder
binds,,,,B1
,binds,binds,binds,"6His-Mcm2 (1-299) (domain or fragment, yeast, UniProt P29469 1-299, looked up) MSDNRRRRREEDDSDSENELPPSSPQQHFRGGMNPVSSPIGSPDMINPEGDDNEVDDVPDIDEVEEQMNEVDLMDDNMYEDYAADHNRDRYDPDQVDDREQQELSLSERRRIDAQLNERDRLLRNVAYIDDEDEEQEGAAQLDEMGLPVQRRRRRRQYEDLENSDDDLLSDMDIDPLREELTLESLSNVKANSYSEWITQPNVSRTIARELKSFLLEYTDETGRSVYGARIRTLGEMNSESLEVNYRHLAESKAILALFLAKCPEEMLKIFDLVAMEATELHYPDYARIHSEIHVRISD"
binds,,,,B2
